The values that follow are results of earlier work, collected in PMC10343017.

In general, Kd refers to a measure of binding affinity in units of concentration.

One data set addresses CMG2 (Homo sapiens) (UniProt P58335).
The next data set concerns the target TEM8 (Homo sapiens) (UniProt Q9H6X2).

On to “protective antigen (from UniProt P13423)”, for which the Kd in the data set with CMG2 (Homo sapiens) is 0.78 nM; with TEM8 (Homo sapiens), 130 nM.
